Our source for the Kd values is patent publication US20180155451A1 (published 2018).

Where two headings read alike, the source gives them in different places.

Usually Kd stands for the equilibrium constant for the complex coming apart. Low readings indicate a tighter complex, high ones a looser complex.

Common to all, as to experiment: SPR (Biacore), antibody captured on chip, FcgR extracellular domain as analyte
(Surface plasmon resonance follows binding to a sensor surface in real time, without labels.)

The target of experiment [1] is T1, FcgRIIIa V (human, UniProt P08637 17-208).
T1 construct: extracellular domain; also called FcγRIIIa V; not shown: His tag attached to the C terminus
T1 sequence (P08637 17-208 F176V limits assumed): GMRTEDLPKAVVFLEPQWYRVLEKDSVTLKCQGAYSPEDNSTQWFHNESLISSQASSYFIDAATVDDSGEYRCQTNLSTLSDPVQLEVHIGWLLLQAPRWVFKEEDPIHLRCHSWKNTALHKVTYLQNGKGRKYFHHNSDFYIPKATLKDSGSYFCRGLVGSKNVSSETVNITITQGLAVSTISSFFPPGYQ
The method, then: (§1) H240-Kn113 (SEQ ID NO: 92) resulting from introduction of Y234E and Y235N into H240-Kn072, H240-Kn115 (SEQ ID NO: 93) resulting from introduction of S239M into H240-Kn072, and H240-Kn125 (SEQ ID NO: 94) resulting from introduction of Y235Q and S239M into H240-Kn072 were prepared according to the method described in Reference Example 1.
(§2) Analysis of interaction between obj ective antibody and the FcγR was carried out using Biacore T100 (GE Healthcare), Biacore T200, Biacore A100, and Biacore 4000. HBS-EP+ (GE Healthcare) was used as the running buffer, and the measurement temperature was set to 25° C. Chips produced by immobilizing the antigen peptide by the amine coupling method to a Series S sensor Chip CM5 (GE Healthcare), chips produced by allowing preliminarily biotinylated antigen peptides to interact with and immobilize onto a Series S Sensor Chip SA (certified) (GE Healthcare), chips produced by immobilizing Protein L (ACTIGEN, BioVision) to Series S Sencor Chip CM5 (GE Healthcare), or chips produced by immobilizing Protein A/G (Thermo Scientific) to Series S Sencor Chip CM5 (GE Healthcare) were used. Antibodies of interest were captured onto these chips, and allowed to interact to each FcγR diluted with running buffer. To regenerate and repeatedly use the chip, the antibodies captured onto the chip were washed off by reacting 10 mM glycine-HCl, pH 1.5.

Experiment [2] concerns the target T2, FcgRIa (human, UniProt P12314 16-292).
T2 construct: extracellular domain; Expressed in FreeStyle293 cells and purified; used as analyte in Biacore; also called FcγRIa; FcγRI; not shown: His tag attached to the C terminus
The method, then: as §1, §2

Experiment [3] concerns the target T3, FcgRIIa H (human, UniProt P12318 34-217).
T3 construct: extracellular domain; also called FcγRIIa H; FcγRIIa type H; not shown: His tag attached to the C terminus
T3 sequence (looked up): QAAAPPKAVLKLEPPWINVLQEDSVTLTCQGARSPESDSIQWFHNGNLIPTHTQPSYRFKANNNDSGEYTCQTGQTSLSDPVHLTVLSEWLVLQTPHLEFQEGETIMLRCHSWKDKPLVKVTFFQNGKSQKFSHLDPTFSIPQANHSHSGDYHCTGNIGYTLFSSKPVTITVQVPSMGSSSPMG
The method, then:
as §1, §2

Experiment [4] has as its target T4, FcgRIIIa F (human, UniProt P08637 17-208).
T4 construct: extracellular domain; also called FcγRIIIa F; not shown: His tag attached to the C terminus
The method, then: as §1, §2

For experiment [5], the target named is T5, FcgRIIa R (human, UniProt P12318 34-217).
T5 construct: extracellular domain; also called FcγRIIa R; FcγRIIa type R; not shown: His tag attached to the C terminus
T5 sequence (looked up): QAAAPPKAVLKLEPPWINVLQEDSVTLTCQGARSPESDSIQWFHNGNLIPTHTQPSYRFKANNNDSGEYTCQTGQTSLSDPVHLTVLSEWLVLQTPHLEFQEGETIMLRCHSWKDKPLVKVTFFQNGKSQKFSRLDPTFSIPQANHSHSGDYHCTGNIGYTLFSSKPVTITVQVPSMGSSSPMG
The method, then: as §1, §2

Experiment [6] concerns the target T6, FcgRIIb (human, UniProt P31994 43-217).
T6 construct: extracellular domain; Expressed in FreeStyle293 cells and purified; used as analyte in Biacore; also called FcγRIIb; CD32B; not shown: His tag attached to the C terminus
T6 sequence (looked up): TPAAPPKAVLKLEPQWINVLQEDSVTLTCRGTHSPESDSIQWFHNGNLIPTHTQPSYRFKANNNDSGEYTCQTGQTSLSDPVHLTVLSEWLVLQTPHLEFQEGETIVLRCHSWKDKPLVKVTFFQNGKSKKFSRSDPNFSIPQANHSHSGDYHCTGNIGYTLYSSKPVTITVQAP
The method, then:
as §1, §2

The target of experiment [7] is T1, FcgRIIIa V. This is another data set of the same source.
The target in experiment [8] is T2, FcgRIa. The source holds these as a separate data set.
Experiment [9] addresses T3, FcgRIIa H. The source holds these as a separate data set.
The target in experiment [10] is T4, FcgRIIIa F. The source holds these as a separate data set.
Experiment [11] concerns the target T5, FcgRIIa R. The source holds these as a separate data set.
For experiment [12], the target named is T6, FcgRIIb. This is another data set of the same source.
Experiment [13] deals with T1, FcgRIIIa V. The method, then:
(§3) Specifically, H240-Kn120 (SEQ ID NO: 99) resulting from introduction of S239M into H240-Kn067 and H240-Kn126 (SEQ ID NO: 100) resulting from introduction of Y235Q into H240-Kn120 were prepared according to the method described in Reference Example 1. […] Those described above were assayed for the binding to each FcgR according to the method described in Reference Example 8.
as §2
This is another data set of the same source.

The target in experiment [14] is T2, FcgRIa. The method, then:
as §3, §2
This is another data set of the same source.

Experiment [15] deals with T3, FcgRIIa H. The method, then: as §3, §2
This is another data set of the same source.

The target in experiment [16] is T4, FcgRIIIa F. The method, then:
as §3, §2
The source holds these as a separate data set.

The target in experiment [17] is T5, FcgRIIa R. The method, then: as §3, §2
The source holds these as a separate data set.

Experiment [18] has as its target T6, FcgRIIb. The method, then:
as §3, §2
This is another data set of the same source.

T4 sequence (P08637 17-208): as the sequence (P08637 17-208 F176V limits assumed) above, with V160F counted along it
T2 sequence (P12314 16-292): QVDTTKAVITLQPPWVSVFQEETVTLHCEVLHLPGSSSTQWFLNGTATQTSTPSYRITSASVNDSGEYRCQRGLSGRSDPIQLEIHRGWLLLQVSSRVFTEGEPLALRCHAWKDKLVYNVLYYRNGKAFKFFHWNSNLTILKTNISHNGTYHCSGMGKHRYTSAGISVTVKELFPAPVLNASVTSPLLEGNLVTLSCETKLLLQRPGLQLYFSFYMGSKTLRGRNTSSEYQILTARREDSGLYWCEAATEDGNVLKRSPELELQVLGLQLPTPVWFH

B1: H240-Kn033/H240-Hl033/L73-k0 (antibody, human IgG1, kappa)
heavy 1: not shown
heavy 2: not shown
light: DIQMTQSPSSLSASVGDRVTITCRASQDIHKYIAWYQQKPGQAPRLLIQYTSTLQPGVPSRFSGSGSGTDYTFTISSLQPEDIATYYCLQYEQLRTFGGGTKVEIKRTVAAPSVFIFPPSDEQLKSGTASVVCLLNNFYPREAKVQWKVDNALQSGNSQESVTEQDSKDSTYSLSSTLTLSKADYEKHKVYACEVTHQGLSSPVTKSFNRGEC
notes: Anti-epiregulin (EREG) IgG1 control with knobs-into-holes alterations only (Y349C/T366W in the knob chain; D356C/T366S/L368A/Y407V in the hole chain); also called H240-Kn033/H240-HI033/L73-k0
Regarding B1, the Kd was 390 nM in experiment [1]; 0.25 nM in experiment [2]; 930 nM in experiment [3]; 2600 nM in experiment [4]; 1000 nM in experiment [5]; 4200 nM in experiment [6]. The Kd in experiment [7] is 390 nM; in [8], 0.25 nM; in [9], 930 nM; in experiment [10], 2600 nM; in experiment [11], 1000 nM; in experiment [12], 4200 nM. The Kd was found to be 390 nM in [13]; 0.25 nM in experiment [14]; 930 nM in [15]; 2600 nM in experiment [16]; 1000 nM in [17]; 4200 nM in experiment [18].

B2: H240-Kn032/H240-Hl032/L73-k0 (antibody, human IgG1, kappa)
heavy 1: QDQLVQSGAEVKKPGASVKVSCKASGFNIKDTYIQWVRQAPGQGLEWMGRIDPLRKQTKYREKFEGRVTITADTSTNTAYMELSSLRSEDTAVYYCVRSGREFDYWGQGTLVTVSSASTKGPSVFPLAPSSKSTSGGTAALGCLVKDYFPEPVTVSWNSGALTSGVHTFPAVLQSSGLYSLSSVVTVPSSSLGTQTYICNVNHKPSNTKVDKKVEPKSCDKTHTCPPCPAPELLGGPDVFLFPPKPKDTLMISRTPEVTCVVVDVSHEDPEVKFNWYVDGVEVHNAKTKPREEQYNSTYRVVSVLTVLHQDWLNGKEYKCKVSNKALPLPEEKTISKAKGQPREPQVCTLPPSRDELTKNQVSLWCLVKGFYPSDIAVEWESNGQPENNYKTTPPVLDSDGSFFLYSKLTVDKSRWQQGNVFSCSVMHEALHNHYTQKSLSLSP
heavy 2: QDQLVQSGAEVKKPGASVKVSCKASGFNIKDTYIQWVRQAPGQGLEWMGRIDPLRKQTKYREKFEGRVTITADTSTNTAYMELSSLRSEDTAVYYCVRSGREFDYWGQGTLVTVSSASTKGPSVFPLAPSSKSTSGGTAALGCLVKDYFPEPVTVSWNSGALTSGVHTFPAVLQSSGLYSLSSVVTVPSSSLGTQTYICNVNHKPSNTKVDKKVEPKSCDKTHTCPPCPAPELLGGPDVFLFPPKPKDTLMISRTPEVTCVVVDVSHEDPEVKFNWYVDGVEVHNAKTKPREEQYNSTYRVVSVLTVLHQDWLNGKEYKCKVSNKALPLPEEKTISKAKGQPREPQVYTLPPSRCELTKNQVSLSCAVKGFYPSDIAVEWESNGQPENNYKTTPPVLDSDGSFFLVSKLTVDKSRWQQGNVFSCSVMHEALHNHYTQKSLSLSP
light: DIQMTQSPSSLSASVGDRVTITCRASQDIHKYIAWYQQKPGQAPRLLIQYTSTLQPGVPSRFSGSGSGTDYTFTISSLQPEDIATYYCLQYEQLRTFGGGTKVEIKRTVAAPSVFIFPPSDEQLKSGTASVVCLLNNFYPREAKVQWKVDNALQSGNSQESVTEQDSKDSTYSLSSTLTLSKADYEKHKVYACEVTHQGLSSPVTKSFNRGEC
notes: Anti-EREG IgG1 called homodimerized: S239D/A330L/I332E in both H chains, on the knobs-into-holes pair Kn033/Hl033
With B2, the Kd was 3.1 nM in [1]; 0.073 nM in experiment [2]; 690 nM in experiment [3]; 9.1 nM in [4]; 340 nM in experiment [5]; 630 nM in [6]. Further, the Kd amounted to 3.1 nM in experiment [7]; 0.073 nM in experiment [8]; 690 nM in [9]; 9.1 nM in experiment [10]; 340 nM in [11]; 630 nM in [12]. Also, the dissociation constant (Kd) in experiment [13] turned out to be 3.1 nM; in [14] it was 0.073 nM; in experiment [15], 690 nM; in [16], 9.1 nM; in [17], 340 nM; in experiment [18], 630 nM.
